Laboratory results: paper PMC6774396 (Frontiers in Immunology, 2019)
Numbering of substitutions follows the chain as printed. In names and notes the source's numbering stands.

How the values were obtained:
[1] = system: ΔM-N L-selectin-GFP/RFP in THP-1 cells; assay: Phos-tag Western blot of L-selectin serine phosphorylation; type: cell-based, human; conditions: 100 nM PMA, 15 min; phos-tag gel
THP-1 cells = assay: Antibody-mediated clustering (AMC) of L-selectin-GFP/RFP, FLIM/FRET; type: cell-based, human; conditions: DREG56 plus secondary antibody
From the text: (A) Schematic representation of the cleavage site, transmembrane domain (TMD), and cytoplasmic tail of human L-selectin. Red underlined region of the cleavage site denotes the amino acids that are deleted in ΔM-N L-selectin. […] Red arrow points to the position of the cut site of the L-selectin cleavage domain. (B) Cells expressing matched levels of L-selectin-GFP/RFP in the following forms: WT, ΔM-N, SSAA, ΔM-N^SSAA, and R357A were subjected to AMC using Alexa Fluor 647-conjugated DREG56 or isotype-matched control, followed by goat anti-mouse secondary antibody (see Materials and Methods for more detail). Cells were plated onto poly-L-lysine-coated coverslips and prepared for FLIM/FRET analysis (see materials and methods). FLIM was used to measure the FRET efficiency between the GFP/RFP donor/acceptor pairs as a direct function of cytoplasmic tail clustering […]. At least 45 individual cells were analyzed over 3 independent clustering assays. (C) Representative images are shown for each cell line. The lifetime of fluorescence (Lftm) is expressed in a pseudocolour scale from red (low lifetime with a very high probability of interaction) to blue (high lifetime with a very low probability of interaction). […] Cells were lysed directly in protein loading buffer (containing the reducing agent, dithiothreitol) and resolved onto standard (lower panel) or phos-tag (upper panel) polyacrylamide gels. Antibodies to GFP and RFP were used to, respectively, probe ΔM-N and ΔM-N^SSAA on Western blots. […] Statistics: One-Way ANOVA Tukey's multiple comparison test. **p ≤ 0.01; ***p ≤ 0.001; ****p ≤ 0.0001.
THP-1 cells were adjusted the night before AMC to a density of 0.5 ×10^6 cells per mL. On the same day, 13 mm diameter glass coverslips (thickness “1”) were placed into the base of a 24 well dish, spotted with 100 μL of poly-L-lysine (PLL) to immobilize according to manufacturer's instruction. On the day of the assay, THP-1 cells were counted and adjusted to a density of 1 ×10^6 per mL in 500 μL containing antibody labeling buffer (RPMI culture medium containing FcR block [Miltenyi Biotec]). Cells were labeled with 2 μg per mL DREG56 for 30 min at 4°C, followed by washing (by centrifugation at 300 g and resuspension) in ice cold culture media to remove excess unbound antibody and then incubated back in ice cold labeling buffer containing secondary antibody conjugated to Alexa Fluor […] (Thermo Fisher) for a further 30 min at 4°C. Cells were then washed twice in ice cold neat RPMI and resuspended to 100 μL of neat ice cold RPMI before 80 μL of the cell suspension was seeded onto 13 mm diameter glass coverslips (thickness = “1”), which were pre-coated with PLL-coated the night before. The seeded cells were placed into a humidified cell culture incubator at 37°C and 5% CO2 for 10 min to drive clustering. Adhered cells were flooded in excess 4% paraformaldehyde and fixed for 15 min at room temperature. Fixed coverslips were washed 3 times in PBS and then treated in 10 mg/mL of Sodium Borohydride dissolved in phosphate buffered saline for 10 min at room temperature (to eliminate autofluorescence and enhance signal to noise ratios). Coverslips were subsequently washed in PBS to remove sodium borohydride and mounted using DAKO mounting medium.
FLIM measurement of FRET was performed with a multiphoton microscope system as described previously ([8], [23]). A Nikon TE2000E inverted microscope, combined with an in-house scanner and Chameleon Ti:Sapphire ultrafast pulsed multiphoton laser (Coherent Inc.), was used for excitation of GFP (at 890 nm). Fluorescence lifetime imaging capability was provided by time-correlated, single-photon counting electronics (SPC 700; Becker & Hickl). A 40 × objective (NA 1.3) was used throughout (CFI60 Plan Fluor; Nikon), and data were acquired at 500 ± 20 nm through a bandpass filter (35–5040; Coherent Inc.). […]

ERM = conditions: biochemically and in cells; cited from earlier work
From the text: The cytoplasmic tail of L-s ...

[2] = system: THP-1 cells over TNF-α-activated HUVEC; assay: Pseudopod protrusion scoring in TEM under flow; type: cell-based, human
Protocol: (A) The number of protrusions formed over this period was scored as: zero, one, two, or >2. (B) The percentages of cells bearing these protrusions were scored at specific time points: 6 min (blue bars), 15 min (green bars), or 25 min (red bars). Supplementary Videos 2, 3, 4 provide examples of cells producing a range of protrusions as TEM proceeds. Data represent SEM of 3 fields of view per flow experiment, conducted on three separate occasions, and at least 180 cells analyzed per group. Values of the vertical lines indicate the differences in protrusion number (specifically “zero” and “two”) corresponding to each of the cell lines, for which statistical significance is shown in Table 1.
All flow experiments were performed using a 35 mm diameter Glycotech parallel plate flow chamber. Perfusion experiments were performed at 1.5 dyn/cm^2 using a Harvard Apparatus 2000 PHD syringe pump. Perfusion media consisted of: RPMI supplemented with L-glutamine, 10% FCS, 1% penicillin/streptomycin, 50 μM β-mercaptoethanol, and 25 mM HEPES. Human Umbilical Vein Endothelial Cells (HUVEC–Lonza) were seeded onto 35 mm diameter glass coverslips (no. 1 thickness; VWR) that were pre-coated with 10 μg/mL fibronectin (37°C for at least 1 h). Before each perfusion assay, HUVEC were stimulated overnight (16 h) with 10 ng/mL carrier-free recombinant human TNF-α (R&D Systems). Each perfusion assay was performed by injecting a bolus of cells for 6 min, followed by just perfusion media (without cells) for the […]. THP-1 cells were perfused at a density of 0.5 ×10^6 cells per mL. THP-1 cells treated with 10 μM TAPI-0 required a preincubation time of 10 min at 37°C before perfusion over TNF-α-activated HUVEC. Note that 10 μM TAPI-0 was also supplemented in the perfusate. Stills were acquired once every 10 seconds using 10 × objective lens.

calmodulin = conditions: transmigrating pseudopods; ref previously published (no number given at b28; b24 cites ref 8); cited from earlier work

Molecule: CCCCCCCCCCCCCC(=O)O[C@@H]1[C@@H](C)[C@@]2(O)[C@@H](C=C(CO)C[C@]3(O)C(=O)C(C)=C[C@@H]23)[C@@H]2C(C)(C)[C@]12OC(C)=O [PMA, phorbol myristate acetate]
- serine phosphorylation of L-selectin [1]: serine phosphorylation was detected only when cells were robustly stimulated with the phorbol ester, PMA

B1: R357A: ERM-binding mutant of L-selectin, arginine 357 mutated to alanine (protein)
chain: WTYHYSEKPMNWQRARRFCRDNYTDLVAIQNKAEIEYLEKTLPFSRSYYWIGIRKIGGIWTWVGTNKSLTEEAENWGDGEPNNKKNKEDCVEIYIKRNKDAGKWNDDACHKLKAALCYTASCQPWSCSGHGECVEIINNYTCNCDVGYYGPQCQFVIQCEPLEAPELGTMDCTHPLGNFSFSSQCAFSCSEGTNLTGIEETTCGPFGNWSSPEPTCQVIQCEPLSAPDLGIMNCSHPLASFSFTSACTFICSEGTELIGKKKTICESSGIWSNPSPICQKLDKSFSMIKEGDYNPLFIPVAVMVTAFSGLAFIIWLARALKKGKKSKRSMNDPY
modifications: left off: eGFP (donor copy) or mCherry (acceptor copy, called RFP), C-terminal, kept
- change in FRET efficiency on AMC or versus comparator (in words) (THP-1 cells): lacked any significant increase in FRET efficiency
- FRET efficiency after AMC (THP-1 cells; 10 min at 37°C, GFP/RFP pair, at least 45 cells, 3 independent assays): 2.47%
- L-selectin/ERM interaction (ERM): block L-selectin/ERM interaction

B2: S367A: L-selectin with Ser^367 mutated to alanine, GFP-tagged, expressed in THP-1 cells (protein, UniProt P14151 39-372, looked up, variant S367A)
L-selectin: B1 chain with A319R, S329A
modifications: C-terminal GFP tag
- protrusive activity profile in TEM (in words) ([2]; 6, 15 and 25 min of flow over TNF-α-activated HUVEC): possessed the fewest protrusions over the recorded period, differing significantly from WT and S364A L-selectin-expressing cell lines
- cells with 2 protrusions ([2]; 15 min time point, mean of 3 fields of view per flow experiment, three occasions, at least 180 cells per group, significance ** S367A p ≤ 0.01 (Tukey), % printed): 13.7%
- cells with 0 protrusions ([2]; 15 min time point, mean of 3 fields of view per flow experiment, three occasions, at least 180 cells per group, significance *** S367A p ≤ 0.001, ** SSAA p ≤ 0.01 (Tukey), % printed): 34.4%
- interaction of calmodulin with L-selectin (calmodulin): significantly reduced interaction of calmodulin
